# Test results reported in patent US20160272680A1 (Bristol-Myers Squibb, published 2016).
# Numbered stars: 1 amine (or outer) side, 2 acyl side, 3 side chain; on linkers, the order of the positions; unused ones are H or OH. Bridge positions count the residues as written; N and C are the ends. Square brackets hold non-standard residues; d marks the D form. Ends that are not written are not given here. * marks the point of attachment. Trp(1-CH2CO) = O=C([C@H](Cc1cn(CC(=O)[*:3])c2ccccc12)N[*:1])[*:2]; Hyp = O=C(O)[C@@H]1C[C@@H](O)CN1; NMeNle = CCCC[C@H](NC)C(=O)O; NMeA = CN[C@@H](C)C(=O)O; Dab = NCC[C@H](N)C(=O)O; Dap = NC[C@H](N)C(=O)O; NH(propargyl) = C#CCN*; NHBn = c1ccc(CN*)cc1
# Target: T1, hPDL1(19-239)-TVMV-His (human, UniProt Q9NZQ7 19-239)
# T1 construct: Expressed in HEK293T cells; The text says amino acids 18-239, but the construct is named hPD-L1(19-239); The whole entry, including the TVMV site and His tag, is the protein used in the assay; also called PD-L1-TVMV-His; PD-L1-His
# Test: HTRF competition of PD-1-Ig binding to PD-L1-His; code A=0.01-0.06 µM
# Experimental: (§1) Homogenous Time-Resolved Fluorescence (HTRF) Assays of Binding of Soluble PD-1 to Soluble PD-L1. Soluble PD-1 and soluble PD-L1 refers to proteins with carboxyl-end truncations that remove the transmembrane-spanning regions and are fused to heterologous sequences, specifically the Fc portion of the human immunoglobuling G sequence (Ig) or the hexahistidine epitope tag (His). All binding studies were performed in an HTRF assay buffer consisting of dPBS supplemented with 0.1% (w/v) bovine serum albumin and 0.05% (v/v) Tween-20. For the PD-1-Ig/PD-L1-His binding assay, inhibitors were pre-incubated with PD-L1-His (10 nM final) for 15 m in 4 μl of assay buffer, followed by addition of PD-1-Ig (20 nM final) in 1 μl of assay buffer and further incubation for 15 m. PD-L1 fusion proteins from either human, cynomologous macaques, mouse, or other species were used. HTRF detection was achieved using europium crypate-labeled anti-Ig monoclonal antibody (1 nM final) and allophycocyanin (APC) labeled anti-His monoclonal antibody (20 nM final). Antibodies were diluted in HTRF detection buffer and 5 μl was dispensed on top of binding reaction. The reaction was allowed to equilibrate for 30 minutes and signal (665 nm/620 nm ratio) was obtained using an EnVision fluorometer. Additional binding assays were established between PD-1-Ig/PD-L2-His (20 and 5 nM, respectively), CD80-His/PD-L1-Ig (100 and 10 nM, respectively) and CD80-His/CTLA4-Ig (10 and 5 nM, respectively). Binding/competition studies between biotinylated Compound No. 71 and human PD-L1-His were performed as follows. Macrocyclic peptide inhibitors were pre-incubated with PD-L1-His (10 nM final) for 60 minutes in 4 μl of assay buffer followed by addition of biotinylated Compound No. 71 (0.5 nM final) in 1 μl of assay buffer. Binding was allowed to equilibrate for 30 minutes followed by addition of europium crypated labeled Streptavidin (2.5 pM final) and APC-labeled anti-His (20 nM final) in 5 μl of HTRF buffer. The reaction was allowed to equilibrate for 30 m and signal (665 nm/620 nm ratio) was obtained using an EnVision fluorometer.
# T1 sequence (Q9NZQ7 other isoform, or with tags, fused parts or gaps limits assumed): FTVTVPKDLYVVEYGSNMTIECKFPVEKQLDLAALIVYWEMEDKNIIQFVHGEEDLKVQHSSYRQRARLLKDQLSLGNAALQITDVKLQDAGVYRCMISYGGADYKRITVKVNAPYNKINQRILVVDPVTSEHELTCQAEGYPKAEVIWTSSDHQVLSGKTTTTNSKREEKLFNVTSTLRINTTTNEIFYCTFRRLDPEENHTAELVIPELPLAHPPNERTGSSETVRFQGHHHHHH
row,Binder,IC50
1,"{CH2CO}-Y[NMeA]NP[Dap]L[Hyp]WGW[NMeNle][NMeNle]LCG-{ethanolamine amide} (thioether N-14, Macrocyclic peptide) [Example 13095]",10 to 60 nM
2,"{CH2CO}-Y[NMeA]NP[Dap]L[Hyp]WGW[NMeNle][NMeNle]LCG-cyclobutylamide (thioether N-14, Macrocyclic peptide) [Example 13092]",10 to 60 nM
3,"{CH2CO}-Y[NMeA]NP[Dap]L[Hyp]WGW[NMeNle][NMeNle]LCG-{2‑methoxyethylamide} (thioether N-14, Macrocyclic peptide) [Example 13082]",10 to 60 nM
4,"{CH2CO}-Y[NMeA]NP[Dap]L[Hyp]WGW[NMeNle][NMeNle]LCG-{2‑phenoxyethylamine} (thioether N-14, Macrocyclic peptide) [Example 13108]",10 to 60 nM
5,"{CH2CO}-Y[NMeA]NP[Dap]L[Hyp]WGW[NMeNle][NMeNle]LCG-{1‑(3-aminopropyl)imidazole amide} (thioether N-14, Macrocyclic peptide) [Example 13099]",10 to 60 nM
6,"{CH2CO}-Y[NMeA]NP[Dap]L[Hyp]WGW[NMeNle][NMeNle]LCG-{N,N‑dimethyl‑1,3‑propanediamine amide} (thioether N-14, Macrocyclic peptide) [Example 13098]",10 to 60 nM
7,"{CH2CO}-Y[NMeA]NP[Dap]L[Hyp]WGW[NMeNle][NMeNle]LCG-{2‑aminoethylmethylsulfone} (thioether N-14, Macrocyclic peptide) [Example 13116]",10 to 60 nM
8,"{CH2CO}-Y[NMeA]NP[Dap]L[Hyp]WGW[NMeNle][NMeNle]LCG (thioether N-14; not fully specified (C-terminus), Macrocyclic peptide) [Example 13104]",10 to 60 nM
9,"{CH2CO}-Y[NMeA]NP[Dap]L[Hyp]WGW[NMeNle][NMeNle]LCG-{pyrrolidin‑1‑yl amide} (thioether N-14, Macrocyclic peptide) [Example 13085]",10 to 60 nM

# Second part, the binder after the results:
row,IC50,Binder
1,10 to 60 nM,"{CH2CO}-Y[NMeA]NP[Dap]L[Hyp]WGW[NMeNle][NMeNle]LCG-{4‑(dimethylamino)piperidine amide} (thioether N-14, Macrocyclic peptide) [Example 13103]"
2,10 to 60 nM,"{CH2CO}-Y[NMeA]NP[Dap]L[Hyp]WGW[NMeNle][NMeNle]LCG-{N‑(2-aminoethyl)‑N‑methyl carbamic acid tert‑butyl ester} (thioether N-14, Macrocyclic peptide) [Example 13113]"
3,10 to 60 nM,"{CH2CO}-Y[NMeA]NP[Dap]L[Hyp]WGW[NMeNle][NMeNle]LCG-{2‑(phenylthio)ethanamine amide} (thioether N-14, Macrocyclic peptide) [Example 13101]"
4,10 to 60 nM,"{CH2CO}-Y[NMeA]NP[Dap]L[Hyp]WGW[NMeNle][NMeNle]LCG-allylamide (thioether N-14, Macrocyclic peptide) [Example 13097]"
5,10 to 60 nM,"{CH2CO}-Y[NMeA]NP[Dap]L[Hyp]WGW[NMeNle][NMeNle]LCG-butylamide (thioether N-14, Macrocyclic peptide) [Example 13100]"
6,10 to 60 nM,"{CH2CO}-Y[NMeA]NP[Dap]L[Hyp]WGW[NMeNle][NMeNle]LCG-{N‑methyl‑N‑propylamide} (thioether N-14, Macrocyclic peptide) [Example 13084]"
7,10 to 60 nM,"{CH2CO}-Y[NMeA]NP[Dap]L[Hyp]WGW[NMeNle][NMeNle]LCG-{3‑(aminomethyl)pyridine amide} (thioether N-14, Macrocyclic peptide) [Example 13094]"
8,10 to 60 nM,"{CH2CO}-Y[NMeA]NP[Dap]L[Hyp]WGW[NMeNle][NMeNle]LCG-{4‑aminocyclohexanol} (thioether N-14, Macrocyclic peptide) [Example 13106]"
9,10 to 60 nM,"{CH2CO}-Y[NMeA]NP[Dap]L[Hyp]WGW[NMeNle][NMeNle]LCG-{4‑(4-chlorophenyl)piperidine} (thioether N-14, Macrocyclic peptide) [Example 13115]"
10,10 to 60 nM,"{CH2CO}-Y[NMeA]NP[Dap]L[Hyp]WGW[NMeNle][NMeNle]LCG-{4‑piperidinemethanol} (thioether N-14, Macrocyclic peptide) [Example 13111]"
11,10 to 60 nM,"{CH2CO}-Y[NMeA]NP[Dap]L[Hyp]WGW[NMeNle][NMeNle]LCG-{NH(propargyl)} (thioether N-14; SMILES C#CCNC(=O)CNC(=O)[C@@H]1CSCC(=O)N[C@@H](Cc2ccc(O)cc2)C(=O)N(C)[C@@H](C)C(=O)N[C@@H](CC(N)=O)C(=O)N2CCC[C@H]2C(=O)N[C@@H](CN)C(=O)N[C@@H](CC(C)C)C(=O)N2C[C@H](O)C[C@H]2C(=O)N[C@@H](Cc2c[nH]c3ccccc23)C(=O)NCC(=O)N[C@@H](Cc2c[nH]c3ccccc23)C(=O)N(C)[C@@H](CCCC)C(=O)N(C)[C@@H](CCCC)C(=O)N[C@@H](CC(C)C)C(=O)N1, Macrocyclic peptide) [Example 13096]"
12,10 to 60 nM,"{CH2CO}-Y[NMeA]NP[Dap]L[Hyp]WGW[NMeNle][NMeNle]LCG-{N‑(3-aminopropyl)diethanolamine} (thioether N-14, Macrocyclic peptide) [Example 13107]"
13,10 to 60 nM,"{CH2CO}-Y[NMeA]NP[Dap]L[Hyp]WGW[NMeNle][NMeNle]LCG-{tert‑butyl 3‑aminopropanoate} (thioether N-14, Macrocyclic peptide) [Example 13109]"
14,10 to 60 nM,"{CH2CO}-Y[NMeA]NP[Dap]L[Hyp]WGW[NMeNle][NMeNle]LCG-{N‑Boc‑1,5‑diaminopentane} (thioether N-14, Macrocyclic peptide) [Example 13112]"
15,10 to 60 nM,"{CH2CO}-Y[NMeA]NP[Dap]L[Hyp]WGW[NMeNle][NMeNle]LCG-{morpholine amide} (thioether N-14, Macrocyclic peptide) [Example 13087]"
16,10 to 60 nM,"{CH2CO}-Y[NMeA]NP[Dap]L[Hyp]WGW[NMeNle][NMeNle]LCG-{methylpiperazine amide} (thioether N-14, Macrocyclic peptide) [Example 13089]"

# Target: T1, hPDL1(19-239)-TVMV-His
# Test: HTRF competition of PD-1-Ig binding to PD-L1-His; code B=0.004-0.0099 µM
# Experimental: as §1
row,IC50,Binder
1,4 to 9.9 nM,"{CH2CO}-Y[NMeA]NP[Dap]L[Hyp]WGW[NMeNle][NMeNle]LCG-{3‑aminopropanamide} (thioether N-14, Macrocyclic peptide) [Example 13110]"
2,4 to 9.9 nM,"{CH2CO}-Y[NMeA]NP[Dap]L[Hyp]WGW[NMeNle][NMeNle]LCG-cyclopropylamide (thioether N-14, Macrocyclic peptide) [Example 13091]"
3,4 to 9.9 nM,"{CH2CO}-Y[NMeA]NP[Dap]L[Hyp]WGW[NMeNle][NMeNle]LCG-{piperidin‑1‑yl amide} (thioether N-14, Macrocyclic peptide) [Example 13086]"
4,4 to 9.9 nM,"{CH2CO}-Y[NMeA]NP[Dap]L[Hyp]W[Dab][Trp(1-CH2CO)][NMeNle][NMeNle]LCG-NHBn (thioether N-14; SMILES CCCC[C@H]1C(=O)N(C)[C@@H](CCCC)C(=O)N[C@@H](CC(C)C)C(=O)N[C@H](C(=O)NCC(=O)NCc2ccccc2)CSCC(=O)N[C@@H](Cc2ccc(O)cc2)C(=O)N(C)[C@@H](C)C(=O)N[C@@H](CC(N)=O)C(=O)N2CCC[C@H]2C(=O)N[C@@H](CN)C(=O)N[C@@H](CC(C)C)C(=O)N2C[C@H](O)C[C@H]2C(=O)N[C@@H](Cc2c[nH]c3ccccc23)C(=O)N[C@@H](CCN)C(=O)N[C@@H](Cc2cn(CC(=O)O)c3ccccc23)C(=O)N1C, Macrocyclic peptide) [Example 13080]"
